Patent publication US20030170203A1 (Human Genome Sciences, published 2003)

B7: full length TNF-gamma-beta expressed on the cell surface (ligand, human, UniProt O95150 1-251, looked up)
chain: MAEDLGLSFGETASVEMLPEHGSCRPKARSSSARWALTCCLVLLPFLAGLTTYLLVSQLRAQGEACVQFQALKGQEFAPSHQQVYAPLRADGDKPRAHLTVVRQTPTQHFKNQFPALHWEHELGLAFTKNRMNYTNKFLLIPESGDYFIYSQVTFRGMTSECSEIRQAGRPNKPDSITVVITKVTDSYPEPTQLLMGTKSVCEVGSNWFQPIYLGAMFSLQEGDKLMVNVSDISLVDYTKEDKTFFGAFLL
notes: whole, on cells; also called TNF-gamma-beta expressing cells

How the values were obtained:
[1] = target: T1, recombinant, untagged TNF-gamma-beta protein (aa 72-251) from E. coli (human, UniProt O95150 72-251); experiment: BIAcore 3000 (SPR), DR3-Fc amine-coupled to CM5 chip, TNF-gamma-beta 3-370 nM in flow, 1:1 binding model; DR3-Fc on the chip
T1 construct: Purified from E. coli
T1 sequence (looked up): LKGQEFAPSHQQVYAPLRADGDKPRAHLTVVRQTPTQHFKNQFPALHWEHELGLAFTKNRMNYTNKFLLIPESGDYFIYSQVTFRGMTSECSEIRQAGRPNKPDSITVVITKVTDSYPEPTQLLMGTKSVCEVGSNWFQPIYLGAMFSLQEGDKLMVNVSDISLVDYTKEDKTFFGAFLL
Procedure: (§1) TNFR-Fc were covalently immobilized to the BIAcore sensor chip (CM5 chip) via amine groups using N-ethyl-N′-(dimethylaminopropyl) carbodiimide/N-hydroxysuccinimide chemistry. […] The amount of bound protein was determined during washing of the flow cell with HBS buffer (10 mM HEPES, pH 7.4, 150 mM NaCl, 3.4 mM EDTA, 0.005% Surfactant P20). The flow cell surface was regenerated by displacing bound protein by washing with 20 microliters of 10 mM glycine-HCl, pH 2.3. For kinetic analysis, the on and off rates were determined using the kinetic evaluation program in BIAevaluation 3 software using a 1:1 binding model and the global analysis method.

[2] = target: T1, recombinant, untagged TNF-gamma-beta …; experiment: BIAcore 3000 (SPR), DR3-Fc amine-coupled to CM5 chip, three batches of TNF-gamma-beta, 1:1 binding model; DR3-Fc; average of three batches of TNF-gamma-beta
Procedure: as §1

[3] = target: B7; experiment: flow cytometry on HEK293F stable transfectants expressing full length TNF-gamma-beta
Procedure: (§2) TR6 has been previously described as a decoy receptor (Pitti et al., Nature 396:699-703 (1998); Yu et al., J. Biol Chem. 274:13733-6 (1999)) capable of competing with Fas and HveA for binding of FasL and LIGHT, respectively.
(§3) One million cells, in 0.1 ml of FACS buffer (PBS, 0.1% BSA, 0.1% NaN₃), were incubated with 0.1-1 microgram of protein or antibody at RT for 15 min. The cells were washed with 3 ml of FACS buffer, reacted with biotinylated primary antibody, and stained with PE-conjugated secondary antibody at RT for 15 min. Cells were then washed again, resuspended in 0.5 microgram/ml of propidium iodide, and live cells were gated and analyzed on a FACScan using the CellQuest software (BD Biosciences).

FADD = target: T2, FADD (UniProt Q13158 1-208); experiment: GST pull-down of in vitro translated 35S-labeled protein, SDS-PAGE and autoradiography
T2 construct: 35S-labeled by in vitro transcription-translation for the GST pull-down; also called AU1-FADD; FADD/MORT1
T2 sequence (looked up): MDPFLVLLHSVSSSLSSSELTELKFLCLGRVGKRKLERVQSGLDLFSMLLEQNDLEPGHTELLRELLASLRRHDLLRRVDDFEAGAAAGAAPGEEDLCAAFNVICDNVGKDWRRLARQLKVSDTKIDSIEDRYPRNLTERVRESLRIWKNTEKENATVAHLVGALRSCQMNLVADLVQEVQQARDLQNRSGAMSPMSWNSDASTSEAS
Procedure: (§4) In vitro binding experiments were performed as described previously (A. M. Chinnaiyan et al., Cell 81: 505-12 (1995); M. P. Boldin et al., J Biol Chem 270: 7795-8 (1995); F. C. Kischkel etal., EMBO 14: 5579-5588 (1995)). […] Following translation, equal amounts of total ³⁵S-labeled reticulocyte lysate were diluted into 150 μl GST binding buffer (50 mM Tris, pH 7.6,120 mM NaCl, 1% NP-40) and incubated for 2 hrs. at 4° C. with the various GST fusion proteins complexed to beads, following the beads were pelleted by plus centrifugation, washed three times in GST buffer, boiled in SDS-sample buffer and resolved on a 12.5% SDS-PAGE. Bound proteins were visualized following autoradioraphy at −80° C. […] After the beads were washed, retained proteins were analyzed by SDS-PAGE and autoradiography. The gel was Coomassie stained to monitor equivalency of loading.
(§5) As an initial screen, in vitro translated radiolabeled DAMs were precipitated with various glutathione S-transferase (GST) fusion proteins immobilized on glutathione-Sepharose beads.

RIP = target: T3, RIP (UniProt Q13546 1-671, limits assumed); experiment: as above
T3 construct: 35S-labeled by in vitro translation for the GST pull-down; also called myc-RIP
T3 sequence (looked up): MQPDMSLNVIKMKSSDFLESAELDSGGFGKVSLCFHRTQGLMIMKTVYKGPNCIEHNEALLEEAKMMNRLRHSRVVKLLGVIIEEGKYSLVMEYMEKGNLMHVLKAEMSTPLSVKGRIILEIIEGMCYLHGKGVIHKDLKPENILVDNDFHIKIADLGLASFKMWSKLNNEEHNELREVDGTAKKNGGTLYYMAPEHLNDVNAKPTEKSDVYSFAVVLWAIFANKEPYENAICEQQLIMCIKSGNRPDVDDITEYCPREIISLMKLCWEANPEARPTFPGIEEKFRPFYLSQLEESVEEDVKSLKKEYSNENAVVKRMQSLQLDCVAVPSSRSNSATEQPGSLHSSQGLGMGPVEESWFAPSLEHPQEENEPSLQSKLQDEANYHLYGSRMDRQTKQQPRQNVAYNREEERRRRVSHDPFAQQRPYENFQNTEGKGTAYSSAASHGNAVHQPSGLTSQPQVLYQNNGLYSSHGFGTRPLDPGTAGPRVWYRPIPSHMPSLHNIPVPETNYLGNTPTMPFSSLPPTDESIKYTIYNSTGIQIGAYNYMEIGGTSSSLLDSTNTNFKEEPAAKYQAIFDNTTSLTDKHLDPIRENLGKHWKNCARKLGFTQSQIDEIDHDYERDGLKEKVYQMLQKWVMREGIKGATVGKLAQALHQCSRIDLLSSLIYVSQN
Procedure: as §4, §5

non-tagged form of TR6 = target: T4, non-tagged form of TR6 (UniProt O95407 30-300); experiment: flow cytometry, competition with DR3-Fc for TNF-gamma-beta on HEK293F cells
T4 construct: also called TNFR-6 alpha; DcR3
T4 sequence (looked up): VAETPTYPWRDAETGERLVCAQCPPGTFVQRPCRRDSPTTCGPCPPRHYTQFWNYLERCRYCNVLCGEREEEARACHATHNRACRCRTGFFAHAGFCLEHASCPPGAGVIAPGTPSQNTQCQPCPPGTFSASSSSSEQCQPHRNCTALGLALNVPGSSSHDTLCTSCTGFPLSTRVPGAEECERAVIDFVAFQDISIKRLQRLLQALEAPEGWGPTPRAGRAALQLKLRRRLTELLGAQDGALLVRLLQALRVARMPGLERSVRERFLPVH
Procedure: as §2, §3

[4] = target: T5, Fc-fusion form of the extracellular domain of DR6 (UniProt O75509 42-349, limits assumed); experiment: flow cytometry on HEK293F stable transfectants expressing full length TNF-gamma-beta
T5 construct: extracellular domain; not shown: Fc
T5 sequence (looked up): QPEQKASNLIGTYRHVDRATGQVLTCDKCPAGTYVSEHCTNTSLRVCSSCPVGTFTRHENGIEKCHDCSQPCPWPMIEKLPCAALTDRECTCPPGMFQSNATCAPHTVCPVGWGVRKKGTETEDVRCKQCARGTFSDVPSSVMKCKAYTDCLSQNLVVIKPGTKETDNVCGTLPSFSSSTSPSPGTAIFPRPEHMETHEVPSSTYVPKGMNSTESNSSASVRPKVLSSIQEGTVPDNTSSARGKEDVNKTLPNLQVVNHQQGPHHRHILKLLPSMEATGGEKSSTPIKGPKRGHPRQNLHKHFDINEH
Procedure: as §2, §3

B1: extracellular domain of human DR3 (aa 1-199) fused at its C-terminus to the Fc domain of human IgG1 (Fc fusion, not shown: a dimerising Fc or GST)
chain: QGGTRSPRCDCAGDFHKKIGLFCCRGCPAGHYLKAPCTEPCGNSTCLVCPQDTFLAWENHHNSECARCQACDEQASQVALENCSAVADTRCGCKPGWFVECQVSQCVSSSPFYCQPCLDCGALHRHTRLLCSRRDTDCGTCLPGFYEHGDGCVSCPTSTLGSCPERCAAVCGWRQ
notes: also called DR3-Fc; DR3.Fc
For B1, the koff [1] was 0.00413 s⁻¹, the kon [1] was 639000 M⁻¹ s⁻¹ and the Kd [2] was 6.45 nM.

B2: Fc-fusion form of the extracellular domain of AITR (Fc fusion, UniProt Q9Y5U5 26-162, looked up)
chain: QRPTGGPGCGPGRLLLGTGTDARCCRVHTTRCCRDYPGEECCSEWDCMCVQPEFHCGDPCCTTCRHHPCPPGQGVQSQGKFSFGFQCIDCASGTFSGGHEGHCKPWTDCTQFGFLTVFPGNKTHNAVCVPGSPPAEP
notes: extracellular domain; not shown: Fc
B2: no binding [3].

B3: GST fusion of the cytoplasmic domain of DR3 (amino acid residues 215-393 (SEQ ID NO:4)) (other)
chain: AGMEALTPPPATHLSPLDSAHTLLAPPDSSEKICTVQLVGNSWTPGYPETQEALCPQVTWSWDQLPSRALGPAAAPTLSPESPAGSPAMMLQPGPQLYDVMDAVPARRWKEFVRTLGLREAEIEAVEVEIGRFRDQQYEMLKRWRQQQPAGLGAVYAALERMGLDGCVEDLRSRLQRGP
notes: Made in E. coli BL21 (DE3) pLysS and immobilized on glutathione-agarose beads; The results paragraph calls it GST-DDCR (DDCR is the former name of DR3); also called GST-DR3; GST-DDCR; not shown: glutathione S-transferase from vector pGSTag
B3: no binding (FADD); no binding (RIP).

B4: Fc-fusion form of the extracellular domain of DcR2 (Fc fusion, UniProt Q9UBN6 56-211, looked up)
chain: ATIPRQDEVPQQTVAPQQQRRSLKEEECPAGSHRSEYTGACNPCTEGVDYTIASNNLPSCLLCTVCKSGQTNKSSCTTTRDTVCQCEKGSFQDKNSPEMCRTCRTGCPRGMVKVSNCTPRSDIKCKNESAASSTGKTPAAEETVTTILGMLASPYH
notes: as for B2
B4: no binding [3].

B5: Fc-fusion form of the extracellular domain of OPG (Fc fusion, UniProt O00300 22-194, looked up)
chain: ETFPPKYLHYDEETSHQLLCDKCPPGTYLKQHCTAKWKTVCAPCPDHYYTDSWHTSDECLYCSPVCKELQYVKQECNRTHNRVCECKEGRYLEIEFCLKHRSCPPGFGVVQAGTPERNTVCKRCPDGFFSNETSSKAPCRKHTNCSVFGLLLTQKGNATHDNICSGNSESTQK
notes: as for B2
B5: no binding [3].

B6: Fc-fusion form of the extracellular domain of DcR1 (Fc fusion, UniProt O14798 26-221, looked up)
chain: ATTARQEEVPQQTVAPQQQRHSFKGEECPAGSHRSEHTGACNPCTEGVDYTNASNNEPSCFPCTVCKSDQKHKSSCTMTRDTVCQCKEGTFRNENSPEMCRKCSRCPSGEVQVSNCTSWDDIQCVEEFGANATVETPAAEETMNTSPGTPAPAAEETMNTSPGTPAPAAEETMTTSPGTPAPAAEETMTTSPGTPA
notes: as for B2
B6: no binding [3].

B7: binds (non-tagged form of TR6); no binding [4].

B8: Fc-fusion form of the extracellular domain of TNFR1 (Fc fusion, UniProt P19438 30-211, looked up)
chain: LVPHLGDREKRDSVCPQGKYIHPQNNSICCTKCHKGTYLYNDCPGPGQDTDCRECESGSFTASENHLRHCLSCSKCRKEMGQVEISSCTVDRDTVCGCRKNQYRHYWSENLFQCFNCSLCLNGTVHLSCQEKQNTVCTCHAGFFLRENECVSCSNCKKSLECTKLCLPQIENVKGTEDSGTT
notes: extracellular domain; also called TNFR1-Fc; TNFRI.Fc; not shown: Fc
B8: no binding [3].

B9: Fc-fusion form of the extracellular domain of OX40 (Fc fusion, UniProt P43489 29-214, looked up)
chain: LHCVGDTYPSNDRCCHECRPGNGMVSRCSRSQNTVCRPCGPGFYNDVVSSKPCKPCTWCNLRSGSERKQLCTATQDTVCRCRAGTQPLDSYKPGVDCAPCPPGHFSPGDNQACKPWTNCTLAGKHTLQPASNSSDAICEDRDPPATQPQETQGPPARPITVQPTEAWPRTSQGPSTRPVEVPGGRA
notes: as for B2
B9: no binding [3].

B10: Fc-fusion form of the extracellular domain of RANK (Fc fusion, UniProt Q9Y6Q6 30-212, looked up)
chain: IAPPCTSEKHYEHLGRCCNKCEPGKYMSSKCTTTSDSVCLPCGPDEYLDSWNEEDKCLLHKVCDTGKALVAVVAGNSTTPRRCACTAGYHWSQDCECCRRNTECAPGLGAQHPLQLNKDTVCKPCLAGYFSDAFSSTDKCRPWTNCTFLGKRVEHHGTEKSDAVCSSSLPARKPPNEPHVYLP
notes: as for B2
B10: no binding [3].
